The values that follow come from publication PMC3744072.

The assay has as its target matrilin-3 (wild type, mouse) (mouse (endogenous in mouse cartilage and chondrocytes)) (UniProt O35701). In words: non-reducing SDS-PAGE and Western blot; total protein lysates of isolated chondrocytes of 5-day-old mice, 4-12% gels, non-reduced against reduced (0.1 M DTT); oligomers assigned by apparent size. For orientation: A western blot detects proteins with antibodies after separation by electrophoresis.

matrilin-3 (wild type, mouse), sequence (O35701 28-481): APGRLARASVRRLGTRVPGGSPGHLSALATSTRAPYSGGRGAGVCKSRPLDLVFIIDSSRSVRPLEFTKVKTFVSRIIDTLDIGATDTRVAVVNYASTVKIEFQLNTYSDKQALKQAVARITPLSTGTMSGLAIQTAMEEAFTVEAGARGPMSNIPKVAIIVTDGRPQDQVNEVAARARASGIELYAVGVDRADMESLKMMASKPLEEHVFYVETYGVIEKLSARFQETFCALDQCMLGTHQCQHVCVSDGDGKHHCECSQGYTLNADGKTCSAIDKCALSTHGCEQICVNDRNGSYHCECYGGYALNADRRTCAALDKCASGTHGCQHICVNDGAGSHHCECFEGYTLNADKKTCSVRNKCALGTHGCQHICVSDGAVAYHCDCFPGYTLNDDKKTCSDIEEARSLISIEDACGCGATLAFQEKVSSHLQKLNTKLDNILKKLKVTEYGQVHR

What is called stoichiometry N is a count of units in the complex or per binding partner. As for “matrilin-3 (wild type, mouse) (from UniProt O35701 28-481) (natural protein)”, the stoichiometry N is 4.
